Values of other authors as cited in paper PMC8544432.
Like-named read-outs stand apart in the source and are kept apart here.

Tests used:
[1] = biological target: PBX1 (Homo sapiens) (UniProt P40424)
[2] = biological target: PBX1 (Homo sapiens) (UniProt P40424); remark: listed apart in the source

UniProt P40424, sequence (P40424 whole entry): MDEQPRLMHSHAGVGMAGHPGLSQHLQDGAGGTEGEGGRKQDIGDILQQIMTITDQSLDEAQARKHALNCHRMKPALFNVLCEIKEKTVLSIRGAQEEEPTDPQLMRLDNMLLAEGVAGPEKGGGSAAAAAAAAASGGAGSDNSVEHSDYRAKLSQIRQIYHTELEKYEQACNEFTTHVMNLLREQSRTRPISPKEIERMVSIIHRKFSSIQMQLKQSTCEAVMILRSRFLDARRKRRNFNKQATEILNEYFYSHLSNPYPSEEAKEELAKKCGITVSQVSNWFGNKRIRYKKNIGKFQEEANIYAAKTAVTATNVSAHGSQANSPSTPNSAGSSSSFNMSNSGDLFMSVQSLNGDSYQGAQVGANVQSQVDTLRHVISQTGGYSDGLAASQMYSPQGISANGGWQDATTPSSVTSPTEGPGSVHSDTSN

**Q.** With MEIS1 (from UniProt O00470) as the substance, how does the Kd [1] read?
**A.** 80 nM

**Q.** For PREP1 (from UniProt P55347), which Kd [2] is on record?
**A.** 18 nM
